Test results from patent publication US10562947B2, “Compositions and methods for preventing or treating diseases, conditions or processes characterized by aberrant fibroblast proliferation and extracellular matrix deposition” (MOERAE MATRIX, INC., priority 2011, dated 2020).

What was measured:
Assay in all cases: Kinase Profiling Assay
Assay type in all cases: biochemical
Conditions in all cases: 100 μM peptide
[1] = target: VRK2(h) (Homo sapiens, UniProt Q86Y07)
Procedure, shortened: (§1)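 Specificity of the MK2-directed peptides is examined by measuring activity of 266 human kinases, every determination performed in duplicate.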

[2] = target: KDR(h) (Homo sapiens, UniProt P35968)
Sequence of KDR(h) (P35968 20-1356): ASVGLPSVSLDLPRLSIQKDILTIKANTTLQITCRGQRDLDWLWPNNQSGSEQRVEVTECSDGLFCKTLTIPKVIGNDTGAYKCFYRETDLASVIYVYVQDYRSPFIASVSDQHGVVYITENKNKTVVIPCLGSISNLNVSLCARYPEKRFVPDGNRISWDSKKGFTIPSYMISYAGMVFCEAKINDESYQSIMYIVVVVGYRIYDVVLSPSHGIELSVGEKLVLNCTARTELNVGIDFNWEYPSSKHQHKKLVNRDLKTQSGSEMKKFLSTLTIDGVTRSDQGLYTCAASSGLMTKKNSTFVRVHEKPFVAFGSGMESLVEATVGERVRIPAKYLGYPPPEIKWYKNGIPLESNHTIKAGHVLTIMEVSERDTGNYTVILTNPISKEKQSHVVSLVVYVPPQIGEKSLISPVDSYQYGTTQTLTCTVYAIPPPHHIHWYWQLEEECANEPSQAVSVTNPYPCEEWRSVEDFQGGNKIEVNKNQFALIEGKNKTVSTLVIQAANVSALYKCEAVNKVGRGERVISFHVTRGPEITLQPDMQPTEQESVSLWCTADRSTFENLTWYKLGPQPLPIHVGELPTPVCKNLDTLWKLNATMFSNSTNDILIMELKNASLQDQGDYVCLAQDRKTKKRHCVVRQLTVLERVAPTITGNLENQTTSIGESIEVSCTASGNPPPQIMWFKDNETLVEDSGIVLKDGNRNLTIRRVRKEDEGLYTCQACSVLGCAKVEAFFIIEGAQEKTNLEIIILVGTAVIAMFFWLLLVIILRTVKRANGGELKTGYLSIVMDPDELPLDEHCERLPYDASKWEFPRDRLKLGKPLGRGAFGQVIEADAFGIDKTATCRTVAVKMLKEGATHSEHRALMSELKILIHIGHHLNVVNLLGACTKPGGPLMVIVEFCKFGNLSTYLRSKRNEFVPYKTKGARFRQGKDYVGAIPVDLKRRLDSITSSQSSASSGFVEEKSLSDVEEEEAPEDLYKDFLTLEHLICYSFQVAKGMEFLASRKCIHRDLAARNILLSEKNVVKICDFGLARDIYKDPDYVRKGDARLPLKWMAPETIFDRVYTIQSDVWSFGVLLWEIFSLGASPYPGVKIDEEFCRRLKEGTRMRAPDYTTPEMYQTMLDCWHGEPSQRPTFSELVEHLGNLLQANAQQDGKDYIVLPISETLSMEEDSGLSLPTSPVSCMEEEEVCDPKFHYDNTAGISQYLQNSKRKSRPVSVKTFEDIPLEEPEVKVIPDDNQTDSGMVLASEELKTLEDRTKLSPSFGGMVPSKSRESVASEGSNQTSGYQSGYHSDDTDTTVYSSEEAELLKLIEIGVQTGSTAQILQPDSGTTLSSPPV
Procedure, shortened: as §1

[3] = target: T1, PKCθ(h) (Homo sapiens, UniProt Q04759)
T1 construct: purchased Millipore (IC50 Profiler Express service)
T1 sequence (Q04759 whole entry): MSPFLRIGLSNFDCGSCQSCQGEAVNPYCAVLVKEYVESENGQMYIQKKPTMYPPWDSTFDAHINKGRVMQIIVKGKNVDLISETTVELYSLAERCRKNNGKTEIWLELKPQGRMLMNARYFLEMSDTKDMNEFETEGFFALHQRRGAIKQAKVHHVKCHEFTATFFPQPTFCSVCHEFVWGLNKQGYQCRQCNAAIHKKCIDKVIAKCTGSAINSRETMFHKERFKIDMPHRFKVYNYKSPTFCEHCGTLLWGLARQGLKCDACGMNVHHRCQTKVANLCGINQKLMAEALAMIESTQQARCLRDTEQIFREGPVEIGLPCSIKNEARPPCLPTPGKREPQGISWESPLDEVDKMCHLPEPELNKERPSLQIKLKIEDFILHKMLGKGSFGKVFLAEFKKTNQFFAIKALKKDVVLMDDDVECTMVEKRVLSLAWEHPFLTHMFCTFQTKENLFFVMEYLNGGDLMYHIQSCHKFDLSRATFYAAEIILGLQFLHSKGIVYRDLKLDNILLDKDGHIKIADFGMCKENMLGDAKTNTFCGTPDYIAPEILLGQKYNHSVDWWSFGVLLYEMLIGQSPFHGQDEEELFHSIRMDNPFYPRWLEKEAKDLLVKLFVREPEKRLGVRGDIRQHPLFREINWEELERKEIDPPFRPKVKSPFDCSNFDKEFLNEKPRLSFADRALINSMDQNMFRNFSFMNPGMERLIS
Procedure, shortened: as §1

[4] = target: T2, TAO3(h) (Homo sapiens, UniProt Q9H2K8)
T2 sequence (Q9H2K8 1-898): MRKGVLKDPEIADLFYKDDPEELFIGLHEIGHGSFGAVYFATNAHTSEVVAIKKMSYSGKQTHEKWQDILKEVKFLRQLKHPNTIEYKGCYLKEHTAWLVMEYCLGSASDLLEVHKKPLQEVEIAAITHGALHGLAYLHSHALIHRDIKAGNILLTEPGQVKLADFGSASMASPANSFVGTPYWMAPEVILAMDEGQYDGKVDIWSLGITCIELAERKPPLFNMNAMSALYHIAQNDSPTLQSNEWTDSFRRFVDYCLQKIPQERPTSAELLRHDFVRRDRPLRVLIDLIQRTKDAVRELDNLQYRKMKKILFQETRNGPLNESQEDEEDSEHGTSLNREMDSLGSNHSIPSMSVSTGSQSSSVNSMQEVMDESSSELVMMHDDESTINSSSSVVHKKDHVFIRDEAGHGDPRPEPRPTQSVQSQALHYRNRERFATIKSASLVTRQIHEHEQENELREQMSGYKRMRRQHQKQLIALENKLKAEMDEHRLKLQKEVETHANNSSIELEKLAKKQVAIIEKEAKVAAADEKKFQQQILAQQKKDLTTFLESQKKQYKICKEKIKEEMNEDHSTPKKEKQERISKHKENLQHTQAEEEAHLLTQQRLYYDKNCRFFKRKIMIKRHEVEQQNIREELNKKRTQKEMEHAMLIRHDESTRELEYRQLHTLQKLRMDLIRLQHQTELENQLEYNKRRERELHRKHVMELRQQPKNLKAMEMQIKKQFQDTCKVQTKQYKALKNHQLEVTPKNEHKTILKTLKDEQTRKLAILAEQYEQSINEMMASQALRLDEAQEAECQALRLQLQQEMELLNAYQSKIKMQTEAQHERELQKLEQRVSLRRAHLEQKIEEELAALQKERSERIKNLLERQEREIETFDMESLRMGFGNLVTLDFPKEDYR
Procedure, shortened: as §1

[5] = target: T3, DDR2(h) (Homo sapiens, UniProt Q16832)
T3 sequence (Q16832 22-855): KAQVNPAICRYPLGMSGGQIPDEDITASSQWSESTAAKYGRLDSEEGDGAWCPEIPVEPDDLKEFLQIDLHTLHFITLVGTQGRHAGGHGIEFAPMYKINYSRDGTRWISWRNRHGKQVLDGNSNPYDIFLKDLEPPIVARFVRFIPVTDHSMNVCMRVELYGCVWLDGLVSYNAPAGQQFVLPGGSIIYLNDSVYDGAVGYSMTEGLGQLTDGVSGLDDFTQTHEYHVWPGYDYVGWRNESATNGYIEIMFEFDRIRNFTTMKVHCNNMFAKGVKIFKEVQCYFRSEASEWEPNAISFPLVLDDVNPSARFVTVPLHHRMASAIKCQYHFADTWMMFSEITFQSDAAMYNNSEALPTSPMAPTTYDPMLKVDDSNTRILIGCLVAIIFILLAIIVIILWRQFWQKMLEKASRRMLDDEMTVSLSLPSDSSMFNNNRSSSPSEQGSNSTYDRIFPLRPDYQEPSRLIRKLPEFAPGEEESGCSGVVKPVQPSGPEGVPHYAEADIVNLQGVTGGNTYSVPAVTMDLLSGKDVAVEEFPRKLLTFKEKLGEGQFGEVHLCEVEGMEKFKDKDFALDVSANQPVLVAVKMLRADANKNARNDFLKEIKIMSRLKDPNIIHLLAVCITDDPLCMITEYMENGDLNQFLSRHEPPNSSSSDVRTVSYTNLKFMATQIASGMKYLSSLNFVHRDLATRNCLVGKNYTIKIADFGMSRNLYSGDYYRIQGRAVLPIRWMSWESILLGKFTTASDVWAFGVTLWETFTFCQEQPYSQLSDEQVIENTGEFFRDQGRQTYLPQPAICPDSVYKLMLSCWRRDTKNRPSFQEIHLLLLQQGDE
Procedure, shortened: as §1

[6] = target: T4, ROCK-I(h) (Homo sapiens, UniProt Q13464)
T4 construct: purchased Millipore (IC50 Profiler Express service)
T4 sequence (Q13464 whole entry): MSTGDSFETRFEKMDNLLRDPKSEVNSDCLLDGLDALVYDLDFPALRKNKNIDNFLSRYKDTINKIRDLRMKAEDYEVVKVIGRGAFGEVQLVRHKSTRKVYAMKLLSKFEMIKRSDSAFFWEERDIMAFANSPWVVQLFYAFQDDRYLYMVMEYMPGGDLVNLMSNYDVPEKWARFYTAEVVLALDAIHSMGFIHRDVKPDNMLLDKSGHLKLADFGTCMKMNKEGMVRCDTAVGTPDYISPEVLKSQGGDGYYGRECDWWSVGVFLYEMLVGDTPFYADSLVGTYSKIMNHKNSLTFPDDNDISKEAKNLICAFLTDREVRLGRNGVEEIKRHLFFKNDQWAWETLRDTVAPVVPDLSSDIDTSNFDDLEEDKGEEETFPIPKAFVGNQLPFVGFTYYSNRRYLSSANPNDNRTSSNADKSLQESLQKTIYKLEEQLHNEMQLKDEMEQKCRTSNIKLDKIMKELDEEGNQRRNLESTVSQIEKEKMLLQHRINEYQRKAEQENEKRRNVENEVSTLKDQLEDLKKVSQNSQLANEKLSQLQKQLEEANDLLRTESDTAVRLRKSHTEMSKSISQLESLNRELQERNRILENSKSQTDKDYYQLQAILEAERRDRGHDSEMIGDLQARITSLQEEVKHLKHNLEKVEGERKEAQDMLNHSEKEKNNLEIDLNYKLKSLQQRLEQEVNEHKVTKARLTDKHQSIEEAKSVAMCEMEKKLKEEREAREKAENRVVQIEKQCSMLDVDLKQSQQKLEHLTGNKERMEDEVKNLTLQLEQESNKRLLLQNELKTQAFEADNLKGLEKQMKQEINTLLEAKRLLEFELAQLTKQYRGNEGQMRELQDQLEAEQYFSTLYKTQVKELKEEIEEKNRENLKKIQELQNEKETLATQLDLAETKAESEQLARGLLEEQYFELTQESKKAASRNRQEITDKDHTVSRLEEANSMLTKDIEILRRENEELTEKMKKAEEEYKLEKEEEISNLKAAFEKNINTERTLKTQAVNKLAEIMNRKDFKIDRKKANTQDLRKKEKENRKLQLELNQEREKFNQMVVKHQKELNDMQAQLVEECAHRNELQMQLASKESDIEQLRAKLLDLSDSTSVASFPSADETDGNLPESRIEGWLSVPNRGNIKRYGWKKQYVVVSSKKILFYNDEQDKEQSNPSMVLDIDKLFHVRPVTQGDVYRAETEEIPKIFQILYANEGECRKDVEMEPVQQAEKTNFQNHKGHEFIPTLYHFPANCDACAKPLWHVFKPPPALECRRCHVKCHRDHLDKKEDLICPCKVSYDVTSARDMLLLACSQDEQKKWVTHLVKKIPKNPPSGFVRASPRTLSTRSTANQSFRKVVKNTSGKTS
Procedure, shortened: as §1

[7] = target: Pim-3(h) (Homo sapiens, UniProt Q86V86)
Procedure, shortened: as §1

[8] = target: eEF-2K(h) (Homo sapiens, UniProt O00418)
Procedure, shortened: as §1

[9] = target: T5, CHK1(h) (Homo sapiens, UniProt O14757)
T5 sequence (O14757 1-476): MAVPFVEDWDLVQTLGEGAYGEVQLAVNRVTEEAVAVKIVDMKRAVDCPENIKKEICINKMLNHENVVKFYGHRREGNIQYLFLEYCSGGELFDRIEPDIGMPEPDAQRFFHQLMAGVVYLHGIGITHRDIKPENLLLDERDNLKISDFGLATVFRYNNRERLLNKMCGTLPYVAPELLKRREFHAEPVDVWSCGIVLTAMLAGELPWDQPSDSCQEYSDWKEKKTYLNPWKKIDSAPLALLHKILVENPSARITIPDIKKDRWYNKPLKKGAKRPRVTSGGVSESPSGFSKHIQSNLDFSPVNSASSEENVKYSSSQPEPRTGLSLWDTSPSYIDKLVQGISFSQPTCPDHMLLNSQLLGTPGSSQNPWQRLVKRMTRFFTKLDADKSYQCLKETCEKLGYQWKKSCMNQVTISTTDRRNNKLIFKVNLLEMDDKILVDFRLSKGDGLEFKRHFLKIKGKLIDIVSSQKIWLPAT
Procedure, shortened: as §1

Sequence of VRK2(h) (Q86Y07 whole entry): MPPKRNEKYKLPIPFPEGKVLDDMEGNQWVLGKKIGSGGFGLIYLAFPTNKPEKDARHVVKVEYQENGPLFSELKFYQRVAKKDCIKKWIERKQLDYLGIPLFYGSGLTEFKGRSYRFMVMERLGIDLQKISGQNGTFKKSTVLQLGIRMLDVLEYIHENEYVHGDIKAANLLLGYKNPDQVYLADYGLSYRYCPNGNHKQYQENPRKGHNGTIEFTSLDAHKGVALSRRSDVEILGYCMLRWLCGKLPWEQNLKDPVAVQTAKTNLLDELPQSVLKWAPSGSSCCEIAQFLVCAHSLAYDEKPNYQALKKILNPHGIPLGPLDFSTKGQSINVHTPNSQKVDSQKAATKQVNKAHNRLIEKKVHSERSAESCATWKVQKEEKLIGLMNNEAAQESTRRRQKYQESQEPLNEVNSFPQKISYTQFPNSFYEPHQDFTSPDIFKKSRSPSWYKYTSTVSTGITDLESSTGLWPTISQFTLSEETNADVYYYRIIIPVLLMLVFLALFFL

| Sequence | VRK2(h) % activity [1] | KDR(h) % activity [2] | PKCθ(h) % activity [3] | TAO3(h) % activity [4] | DDR2(h) % activity [5] | ROCK-I(h) % activity [6] | Pim-3(h) % activity [7] | eEF-2K(h) % activity [8] | CHK1(h) % activity [9] |
| --- | --- | --- | --- | --- | --- | --- | --- | --- | --- |
| FAKLAARLYRKALARQLGVAA [MMI-0300] | 161% | 101% | 88% | 77% | 94% | 79% | 80% | 91% | 91% |
| KAFAKLAARLYRKALARQLGVAA [MMI-0400] | 185% | 94% | 76% | 67% | 95% | 73% | 80% | 43% | 87% |
| HRRIKAWLKKIKALARQLGVAA (Mammalian) [MMI-0500] | 169% | 15% | 62% | 12% | 79% | 17% | 37% | 43% | 65% |
| YARAAARQARAKALNRQLGVA (Mammalian) [MMI-0200] |  | 110% | 101% |  |  |  | 94% |  |  |
